# Data taken from patent publication US6866997.
# Key:
# [1] = system: anti-ras lead zinc finger peptide (designed) (synthetic); settings: apparent Kd; phage display
# [2] = system: anti-ras optimised zinc finger peptide (F1 position +3 Asn) (synthetic); settings: apparent Kd; phage display, Zn
# [3] = target: F2-Arg finger 3 Asp2Ala finger 3 helix position 2 D to A (synthetic) (UniProt P08046); settings: about four-fold reduced affinity versus F2-Arg; phage ELISA, Zn, 20 C
# [4] = target: Zif268 DNA-binding domain finger 3 Asp2Ala finger 3 helix position 2 D to A (UniProt P08046); settings: about four-fold reduced affinity versus wild-type Zif268; phage ELISA, Zn, 20 C
sequence,measurement,setting,value
GACGGCGCC (double strand),Kd,[1],0.017 µM
same,Kd,[2],0.003 µM
GCGGTGGCG (double strand) [F2-Arg consensus site],binding signal,[3],4 fold
GCGTGGGCG (double strand) [Zif268 consensus site],binding signal,[4],4 fold
